According to PMC6456427:
Like-named read-outs stand apart in the source and are kept apart here.

Legend:
Experiment in all cases: SEC
[1] = target: Flavobacterium johnsoniae class Id ribonucleotide reductase α subunit (Flavobacterium johnsoniae)
[2] = target: Actinobacillus ureae class Id ribonucleotide reductase α subunit (Actinobacillus ureae)
[3] = target: Actinobacillus ureae class Id ribonucleotide reductase α subunit (Actinobacillus ureae); remark: listed apart in the source

stoichiometry N [1]	stoichiometry N [2]	stoichiometry N [3]	Substance
2	–	–	Flavobacterium johnsoniae class Id ribonucleotide reductase α subunit (enzyme)
–	2	2	Actinobacillus ureae class Id ribonucleotide reductase α subunit (enzyme)
